{"source": "patent US6136558A", "about": "“Heregulin variants” (Genentech, Inc., priority 1998, dated 2000)", "key": {"[1]": {"target": "ErbB-2/3 receptor-Ig fusion (ErbB-2/3-Ig)", "test": "Phage ELISA, competition with soluble ErbB-2/3-Ig", "assay_type": "binding", "settings": "EGF-like domain displayed monovalently on phage as pIII fusion; soluble ErbB-2/3-Ig competing half of the phage off the plate; average of duplicate experiments", "excerpt": "(§1) To produce phage displaying the domains, mutagenesis reaction mixtures were electrotransformed into XL1-Blue™ cells (Stratagene, Inc., La Jolla, Calif.), according to the manufacturer's protocol. The transformed cells were then infected with 10^11 plaque-forming units (pfu) M13K07 helper phage (Promega Corp., Madison, Wis.). […] The phage were resuspended in phosphate-buffered saline (PBS: 0.01 M sodium phosphate, 0.1 M NaCl, pH 7.5).\n(§2) Microtiter plates (Nunc Maxisorp™ 96-well plates, Inter Med, Denmark) for phage ELISA were prepared as follows. The wells were precoated overnight with 0.5 μg of rabbit anti-human IgG (Fc gamma fragment-specific) antibodies (Jackson Immunoresearch, West Grove, Pa.) in 100 μL 50 mM NaCO3 (pH 9.6). The wells were blocked for 30 minutes (min) with 200 μL PBS containing 0.1% bovine serum albumin (BSA) and rinsed with wash buffer (PBS containing 0.05% Tween 20™). The wells were then coated with 0.1 μg ErbB-2/3-Ig in binding buffer (PBS, 0.1% BSA, 0.05% Tween 20™) for 1 h, and washed again.\n(§3) Following incubation for 2 h at room temperature, plates were washed extensively and treated with a 1:900 dilution of anti-M13 horseradish peroxidase conjugate (Pharmacia, Piscataway, N.J.) for 20 min. The amount of phage binding was determined by assaying horseradish peroxidase activity using o-phenylenediamine dihydrochloride) substrate solution (Sigma Chemical Company, St. Louis, Mo.)."}, "ErbB-3-Ig [2]": {"target": "ErbB-3-Ig", "test": "Phage ELISA, binding to ErbB-3-Ig", "settings": "for Phage ErbB-3 EC50 (wt)/EC50 (mut): relative to wild-type HRG-β1 EGF phage in same run, above 1 = higher affinity than wild-type", "excerpt": "as §1, §2, §3\n(§4) Alanine-substituted variants were generated by site-directed mutagenesis according to Kunkel et al., Methods Enzymol. […] A series of oligonucleotides was used to generate a series of constructs that expressed a series of variants in which consecutive residues were mutated to alanine.\n(§5) In addition, phagemid vectors for use in producing phage displaying mutated HRG-β1 EGFs containing various combinations of the above mutations (\"combination variants\") were prepared by Kunkel mutagenesis, using templates prepared from several of the above-described variants. […] Some of the variants and combination variants were also tested for relative ErbB-4-Ig affinity to assess specificity.\n(§6) The affinities of the variants for ErbB-3-Ig and ErbB-4-Ig were determined to assess specificity."}, "ErbB-4-Ig [3]": {"target": "ErbB-4-Ig", "test": "Phage ELISA, binding to ErbB-4-Ig", "settings": "for Phage ErbB-4 EC50 (wt)/EC50 (mut): relative to wild-type HRG-β1 EGF phage in same run, above 1 = higher affinity than wild-type", "excerpt": "as §1, §2, §3, §4, §5, §6"}, "ErbB-3-Ig [4]": {"target": "ErbB-3-Ig", "test": "Inhibition of 125I-HRG-β1 177-244 binding to ErbB-3-Ig by soluble protein", "method": "(§7) The affinities of the Trx-variant fusions for ErbB receptor-Ig fusions were determined by measuring inhibition of ^125 I-HRG-β1 177-244 binding to ErbB-3-Ig and ErbB-4-Ig. Receptor fusions were coated on plates (Nunc Maxisorp C™ break-apart strip wells, Inter Med, Denmark) via anti-human IgG, as described in Example 1 for phage ELISA. Binding assays were carried out with a constant amount of ^125 I-HRG-β1 177-244 (100-300 pM) and varying concentrations (100 pM-4 μM) of unlabeled Trx-variant fusion. Following incubation for 1-3 h at room temperature, plates were washed, and the amount of bound ^125 I-HRG-β1 177-244 in each well was counted on a gamma counter (Isodata, ICN Biomedic Systems, Huntsville, Ala.). For the ErbB-3 binding assays, the blocking buffer was TBST (0.025 M Tris-HC1 [pH 7.5], 0.15 M NaCl, 0.02% Tween 20™) containing 1% BSA; the binding buffer was RPMI 1640™ cell culture media (Gibco-BRL, Gaithersburg, Md.) containing 2 mM glutamine, 100 U/mL penicillin, 100 μg/mL streptomycin, 10 mM HEPES buffer (pH 7.2), 0.2% BSA; and the wash buffer was TBST. For the ErbB-4 binding assays, PBS containing 1% BSA was used as the blocking and binding buffers, and the wash buffer was PBS containing 0.05% Tween 20™."}, "ErbB-4-Ig [5]": {"target": "ErbB-4-Ig", "test": "Inhibition of 125I-HRG-β1 177-244 binding to ErbB-4-Ig by soluble protein", "method": "as §7"}, "ErbB-2/3-Ig": {"test_system": "ErbB-2/3-Ig", "test": "Inhibition of 125I-HRG binding to ErbB-2/3-Ig by soluble variant"}, "[6]": {"target": "ErbB-4 receptor-Ig fusion (human) (UniProt Q15303)", "test": "phage ELISA, soluble ErbB-4-Ig as competitor"}, "[7]": {"target": "ErbB-3 receptor-Ig fusion (human) (UniProt P21860)", "test": "phage ELISA, soluble ErbB-3-Ig as competitor (only one value in the row, read as the phage column)"}, "[8]": {"target": "ErbB-3 receptor-Ig fusion (human) (UniProt P21860)", "test": "phage ELISA, soluble ErbB-3-Ig as competitor"}, "[9]": {"target": "ErbB-4 receptor-Ig fusion (human) (UniProt Q15303)", "test": "phage ELISA, soluble ErbB-4-Ig as competitor", "remark": "listed apart in the source"}, "[10]": {"target": "ErbB-2/3 receptor-Ig fusion (human) (UniProt P04626)", "test": "phage ELISA, soluble ErbB-2/3-Ig as competitor"}, "[11]": {"target": "ErbB-3 receptor-Ig fusion (human) (UniProt P21860)", "test": "phage ELISA, ratio to wild-type HRG8 phage (reference itself)"}, "[12]": {"target": "ErbB-4 receptor-Ig fusion (human) (UniProt Q15303)", "test": "phage ELISA, ratio to wild-type HRG8 phage (reference itself)"}, "[13]": {"target": "ErbB-3 receptor-Ig fusion (human) (UniProt P21860)", "test": "phage ELISA, ratio to wild-type HRG8 phage"}, "[14]": {"target": "ErbB-4 receptor-Ig fusion (human) (UniProt Q15303)", "test": "phage ELISA, ratio to wild-type HRG8 phage"}, "[15]": {"target": "ErbB-2/3 heterodimers on MCF7 breast cancer carcinoma cells (Homo sapiens (Human), UniProt P04626)", "test": "cell-based or functional assay"}, "[16]": {"target": "ErbB-3 receptor-Ig fusion (human) (UniProt P21860)", "test": "displacement of 125I-HRG from ErbB-3-Ig"}, "[17]": {"target": "ErbB-4 receptor-Ig fusion (human) (UniProt Q15303)", "test": "displacement of 125I-HRG from ErbB-4-Ig"}, "[18]": {"target": "ErbB-2/3 receptor-Ig fusion (human) (UniProt P04626)", "test": "displacement of 125I-HRG from ErbB-2/3-Ig"}}, "note": "Ends that are not written are not given here."}
{"molecule": "HRG8: wild-type HRG-β1 177-228 minimal EGF-like domain; on phage via (GGGS)3 linker to pIII 323, or soluble (SHLVKCAEKEKTFCVNGGECFMVKDLSNPSRYLCKCPNEFTGDRCQNYVMAS; not fully specified; cysteine pairing not given here) [reference compound]", "values": [{"measurement": "EC50", "setting": "[1]", "result": 11, "unit": "nM"}, {"measurement": "ErbB-2/3-Ig EC50", "setting": "[1]", "result": "slight affinity enhancement"}, {"measurement": "EC50", "setting": "ErbB-3-Ig [2]; phage ELISA, reference value of Table 13, read-out: wild-type HRG-β1 EGF-phage EC50 for ErbB3-Ig", "result": "135 ± 104", "unit": "nM"}, {"measurement": "Phage ErbB-3 EC50 (wt)/EC50 (mut)", "setting": "ErbB-3-Ig [2]; phage ELISA", "result": 1}, {"measurement": "EC50", "setting": "ErbB-4-Ig [3]; phage ELISA, reference value of Table 13, read-out: wild-type HRG-β1 EGF-phage EC50 for ErbB4-Ig", "result": "163 ± 112", "unit": "nM"}, {"measurement": "Phage ErbB-4 EC50 (wt)/EC50 (mut)", "setting": "ErbB-4-Ig [3]; phage ELISA", "result": 1}, {"measurement": "EC50", "setting": "ErbB-3-Ig [4]; soluble HRG-β1 EGF variant free of pIII, inhibition of 125I-HRG binding, read-out: ErbB-3-Ig EC50", "result": "2.3 ± 0.2", "unit": "nM"}, {"measurement": "EC50", "setting": "ErbB-4-Ig [5]; soluble HRG-β1 EGF variant free of pIII, inhibition of 125I-HRG binding, read-out: ErbB-4-Ig EC50", "result": "1.5 ± 0.1", "unit": "nM"}, {"measurement": "affinity for the 2/3-heterodimer versus the 3/3 homodimer", "setting": "ErbB-2/3-Ig; ErbB-2/3-Ig versus ErbB-3-Ig homodimer", "result": "approximately 100 fold"}, {"measurement": "EC50", "setting": "ErbB-2/3-Ig; soluble HRG-β1 EGF variant free of pIII, inhibition of 125I-HRG binding", "result": "0.033 ± 0.003", "unit": "nM"}]}
{"molecule": "G1: K211R, P213S, N214L (SHLVKCAEKEKTFCVNGGECFMVKDLSNPSRYLCRCSLEFTGDRCQNYVMAS)", "values": [{"measurement": "Phage ErbB-3 EC50 (wt)/EC50 (mut)", "setting": "ErbB-3-Ig [2]; phage ELISA", "result": "1.2 ± 0.36"}, {"measurement": "Phage ErbB-4 EC50 (wt)/EC50 (mut)", "setting": "ErbB-4-Ig [3]; phage ELISA", "result": 1.6}]}
{"molecule": "HRG-β1 177-244 V199A on phage (ligand)", "values": [{"measurement": "EC50", "setting": "[6]", "result": 47, "unit": "nM"}, {"measurement": "EC50", "setting": "[7]", "result": 27, "unit": "nM"}]}
{"molecule": "HRG8 (wild-type HRG-β1 EGF displayed on phage) (ligand) SHLVKCAEKEKTFCVNGGECFMVKDLSNPSRYLCKCPNEFTGDRCQNYVMAS", "values": [{"measurement": "EC50", "setting": "[8]", "result": 135, "unit": "nM"}, {"measurement": "EC50", "setting": "[9]", "result": 163, "unit": "nM"}, {"measurement": "EC50", "setting": "[10]", "result": 11, "unit": "nM"}, {"measurement": "EC50(wt)/EC50(mut)", "setting": "[11]", "result": 1}, {"measurement": "EC50(wt)/EC50(mut)", "setting": "[12]", "result": 1}]}
{"molecule": "B3 (phage) (ligand) SHLVKCGEEREGFCVNGGECFMVKDLSNPSRYLCKCPNEFTGDRCQNYVMAS", "values": [{"measurement": "EC50(wt)/EC50(mut)", "setting": "[13]", "result": 4.7}, {"measurement": "EC50(wt)/EC50(mut)", "setting": "[14]", "result": 1.7}]}
{"molecule": "I2 (phage) (ligand) SHLVKCAEKEKTFCVNGGECFMVKDLSNPSRYLCKCPNEFTGDRCQHYVIAS", "values": [{"measurement": "EC50(wt)/EC50(mut)", "setting": "[13]", "result": 20}, {"measurement": "EC50(wt)/EC50(mut)", "setting": "[14]", "result": 10}]}
{"molecule": "D4 (phage) (ligand) SHLVKCAEKEKTFCVNGGECYRVKTLSNPSRYLCKCPNEFTGDRCQNYVMAS", "values": [{"measurement": "EC50(wt)/EC50(mut)", "setting": "[13]", "result": 2.9}, {"measurement": "EC50(wt)/EC50(mut)", "setting": "[14]", "result": 5}]}
{"molecule": "HRG8 (WT), soluble wild-type HRG-β1 EGF (ligand, ends and bridges not checked; cysteine pairing not given here) SHLVKCAEKEKTFCVNGGECFMVKDLSNPSRYLCKCPNEFTGDRCQNYVMAS", "values": [{"measurement": "KIRA EC50 (tyrosine phosphorylation of the ErbB-2 receptor on MCF7 cells)", "setting": "[15]", "result": 0.212, "unit": "nM"}, {"measurement": "EC50", "setting": "[16]", "result": 2.3, "unit": "nM"}, {"measurement": "EC50", "setting": "[17]", "result": 1.5, "unit": "nM"}, {"measurement": "EC50", "setting": "[18]", "result": 0.033, "unit": "nM"}]}
{"molecule": "HRG2 (HRG-β1 177-244 displayed on phage) (ligand) SHLVKCAEKEKTFCVNGGECFMVKDLSNPSRYLCKCPNEFTGDRCQNYVMASFYKHLGIEFMEAEELY", "values": [{"measurement": "EC50", "setting": "[8]", "result": 13, "unit": "nM"}, {"measurement": "EC50", "setting": "[9]", "result": 19, "unit": "nM"}, {"measurement": "EC50", "setting": "[10]", "result": 6, "unit": "nM"}]}
{"molecule": "HRG-β1: recombinantly produced HRGβ1 177-244 (wild-type) (protein, ends and bridges not checked) SHLVKCAEKEKTFCVNGGECFMVKDLSNPSRYLCKCPNEFTGDRCQNYVMASFYKHLGIEFMEAEELY", "values": [{"measurement": "EC50", "setting": "ErbB-3-Ig [2]; alanine-substituted HRG-β1 177-244 displayed on phage, read-out: Phage EC50, binding to the ErbB-3 Receptor", "result": 13, "unit": "nM"}, {"measurement": "EC50", "setting": "ErbB-4-Ig [3]; alanine-substituted HRG-β1 177-244 displayed on phage, read-out: Phage EC50, binding to the ErbB-4 Receptor", "result": 19, "unit": "nM"}, {"measurement": "EC50", "setting": "ErbB-3-Ig [4]; soluble thioredoxin (Trx) fusion, inhibition of 125I-HRG-β1 177-244 binding, read-out: Sol EC50, binding to the ErbB-3 Receptor", "result": 9, "unit": "nM"}, {"measurement": "EC50", "setting": "ErbB-4-Ig [5]; soluble thioredoxin (Trx) fusion, inhibition of 125I-HRG-β1 177-244 binding, read-out: Sol EC50, binding to the ErbB-4 Receptor", "result": 14.8, "unit": "nM"}]}
